From publication PMC9482650, “Quantitative fragmentomics allow affinity mapping of interactomes” (Nature Communications, 2022)

T1: HTRA4, P83105
T1 sequence (P83105 378-476, limits assumed, looked up): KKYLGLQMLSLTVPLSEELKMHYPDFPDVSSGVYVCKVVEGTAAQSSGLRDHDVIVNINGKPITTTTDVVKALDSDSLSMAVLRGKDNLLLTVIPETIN

T2: APBA1_2, Q02410
T2 sequence (Q02410 742-832, limits assumed, looked up): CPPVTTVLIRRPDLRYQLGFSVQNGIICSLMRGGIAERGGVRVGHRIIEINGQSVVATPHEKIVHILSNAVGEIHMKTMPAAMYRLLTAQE

T3: DFNB31_2, Q9P202
T3 sequence (Q9P202 274-371, limits assumed, looked up): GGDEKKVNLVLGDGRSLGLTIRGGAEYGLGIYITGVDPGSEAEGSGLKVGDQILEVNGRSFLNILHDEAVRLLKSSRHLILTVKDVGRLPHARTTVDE

T4: LNX2_3, Q8N448
T4 sequence (Q8N448 463-564, limits assumed, looked up): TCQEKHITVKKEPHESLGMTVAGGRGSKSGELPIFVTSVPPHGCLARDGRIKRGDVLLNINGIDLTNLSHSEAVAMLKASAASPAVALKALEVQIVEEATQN

T5: TIAM2, Q8IVF5
T5 sequence (Q8IVF5 885-986, limits assumed, looked up): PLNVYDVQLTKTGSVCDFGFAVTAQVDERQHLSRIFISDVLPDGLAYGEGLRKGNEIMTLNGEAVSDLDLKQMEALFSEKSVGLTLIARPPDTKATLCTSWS

T6: TJP3_3, O95049
T6 sequence (O95049 375-456, limits assumed, looked up): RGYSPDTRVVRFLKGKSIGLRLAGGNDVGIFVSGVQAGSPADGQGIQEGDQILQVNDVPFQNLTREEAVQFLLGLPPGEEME

T7: SIPA1L2, Q9P2F8
T7 sequence (Q9P2F8 945-1036, limits assumed, looked up): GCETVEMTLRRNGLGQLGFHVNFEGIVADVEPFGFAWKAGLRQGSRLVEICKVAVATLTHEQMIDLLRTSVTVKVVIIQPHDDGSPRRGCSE

T8: LRRC7, Q96NW7
T8 sequence (Q96NW7 1440-1537, limits assumed, looked up): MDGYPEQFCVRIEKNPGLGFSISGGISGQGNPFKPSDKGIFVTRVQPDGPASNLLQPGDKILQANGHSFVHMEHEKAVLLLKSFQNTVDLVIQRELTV

T9: PDZD7_3, Q9H5P4
T9 sequence (Q9H5P4 857-944, limits assumed, looked up): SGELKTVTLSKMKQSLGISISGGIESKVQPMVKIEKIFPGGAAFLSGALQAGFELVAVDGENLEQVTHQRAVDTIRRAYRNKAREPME

T10: GRIP1_5, Q9Y3R0
T10 sequence (Q9Y3R0 568-668, limits assumed, looked up): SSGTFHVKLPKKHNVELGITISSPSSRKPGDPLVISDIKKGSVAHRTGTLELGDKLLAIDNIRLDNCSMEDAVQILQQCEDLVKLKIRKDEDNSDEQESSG

T11: NHERF3_1, Q5T2W1
T11 sequence (Q5T2W1 4-100, limits assumed, looked up): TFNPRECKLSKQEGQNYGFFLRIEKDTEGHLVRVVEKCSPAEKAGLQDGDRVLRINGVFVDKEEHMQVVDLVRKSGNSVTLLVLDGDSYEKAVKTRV

T12: APBA2_1, Q99767
T12 sequence (Q99767 563-664, limits assumed, looked up): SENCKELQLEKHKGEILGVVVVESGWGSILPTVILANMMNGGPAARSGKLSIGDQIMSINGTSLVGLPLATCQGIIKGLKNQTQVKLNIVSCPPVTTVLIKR

T13: DFNB31_1, Q9P202
T13 sequence (Q9P202 135-233, limits assumed, looked up): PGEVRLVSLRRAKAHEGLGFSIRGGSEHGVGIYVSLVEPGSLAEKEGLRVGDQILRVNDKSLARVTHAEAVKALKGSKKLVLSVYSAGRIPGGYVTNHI


Molecular target: T1, HTRA4, P83105
Experiment: holdup assay
Set-up: key: below the threshold = too weak to quantify, mostly under pKd 3.1 to 4
Conditions: plain residues with an end cap or a label only (N-terminal biotin on a linker: ado-ado)

Row | Binder | pKd
1 | SSGSTSSSRI [ADGRG1, Q9Y653] | below the threshold
2 | PKLMGVETVV [DUSP10, Q9Y6W6] | 3.74

Molecular target: DLG1_1, Q12959
Experiment: holdup assay
Set-up: key: below the threshold = too weak to quantify, mostly under pKd 3.1 to 4
Conditions: plain residues with an end cap or a label only (N-terminal biotin on a linker: ado-ado)

Row | Binder | pKd
3 | SSGSTSSSRI [ADGRG1, Q9Y653] | below the threshold
4 | PKLMGVETVV [DUSP10, Q9Y6W6] | 5.06

Molecular target: DLG1_3, Q12959
Experiment: holdup assay
Set-up: key: below the threshold = too weak to quantify, mostly under pKd 3.1 to 4
Conditions: plain residues with an end cap or a label only (N-terminal biotin on a linker: ado-ado)

Row | Binder | pKd
5 | SSGSTSSSRI [ADGRG1, Q9Y653] | 3.87
6 | PKLMGVETVV [DUSP10, Q9Y6W6] | 4.52

Molecular target: DLG1_2, Q12959
Experiment: holdup assay
Set-up: key: below the threshold = too weak to quantify, mostly under pKd 3.1 to 4
Conditions: plain residues with an end cap or a label only (N-terminal biotin on a linker: ado-ado)

Row | Binder | pKd
7 | SSGSTSSSRI [ADGRG1, Q9Y653] | below the threshold
8 | PKLMGVETVV [DUSP10, Q9Y6W6] | 5.61

Molecular target: MAST1, Q9Y2H9
Experiment: holdup assay
Set-up: key: below the threshold = too weak to quantify, mostly under pKd 3.1 to 4
Conditions: plain residues with an end cap or a label only (N-terminal biotin on a linker: ado-ado)

Chain of MAST1, Q9Y2H9 (Q9Y2H9 962-1065): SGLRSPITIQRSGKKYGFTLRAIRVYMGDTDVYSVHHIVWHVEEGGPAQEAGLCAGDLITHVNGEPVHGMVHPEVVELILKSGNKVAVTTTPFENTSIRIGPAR

Row | Binder | pKd
9 | SSGSTSSSRI [ADGRG1, Q9Y653] | 4
10 | PKLMGVETVV [DUSP10, Q9Y6W6] | 4.58

Molecular target: T2, APBA1_2, Q02410
Experiment: holdup assay
Set-up: key: below the threshold = too weak to quantify, mostly under pKd 3.1 to 4
Conditions: plain residues with an end cap or a label only (N-terminal biotin on a linker: ado-ado)

Row | Binder | pKd
11 | SSGSTSSSRI [ADGRG1, Q9Y653] | below the threshold
12 | PKLMGVETVV [DUSP10, Q9Y6W6] | 4.08

Molecular target: CASK, O14936
Experiment: holdup assay
Set-up: key: below the threshold = too weak to quantify, mostly under pKd 3.1 to 4
Conditions: plain residues with an end cap or a label only (N-terminal biotin on a linker: ado-ado)

Chain of CASK, O14936 (O14936 487-570): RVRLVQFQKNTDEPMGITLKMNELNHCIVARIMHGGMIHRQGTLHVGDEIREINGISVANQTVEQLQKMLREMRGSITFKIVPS

Row | Binder | pKd
13 | SSGSTSSSRI [ADGRG1, Q9Y653] | below the threshold
14 | PKLMGVETVV [DUSP10, Q9Y6W6] | below the threshold

Molecular target: T3, DFNB31_2, Q9P202
Experiment: holdup assay
Set-up: key: below the threshold = too weak to quantify, mostly under pKd 3.1 to 4
Conditions: plain residues with an end cap or a label only (N-terminal biotin on a linker: ado-ado)

Row | Binder | pKd
15 | SSGSTSSSRI [ADGRG1, Q9Y653] | below the threshold
16 | PKLMGVETVV [DUSP10, Q9Y6W6] | below the threshold

Molecular target: T4, LNX2_3, Q8N448
Experiment: holdup assay
Set-up: key: below the threshold = too weak to quantify, mostly under pKd 3.1 to 4
Conditions: plain residues with an end cap or a label only (N-terminal biotin on a linker: ado-ado)

Row | Binder | pKd
17 | SSGSTSSSRI [ADGRG1, Q9Y653] | below the threshold
18 | PKLMGVETVV [DUSP10, Q9Y6W6] | below the threshold

Molecular target: T5, TIAM2, Q8IVF5
Experiment: holdup assay
Set-up: key: below the threshold = too weak to quantify, mostly under pKd 3.1 to 4
Conditions: plain residues with an end cap or a label only (N-terminal biotin on a linker: ado-ado)

Row | Binder | pKd
19 | SSGSTSSSRI [ADGRG1, Q9Y653] | 3.82
20 | PKLMGVETVV [DUSP10, Q9Y6W6] | below the threshold

Molecular target: NHERF2_2, Q15599
Experiment: holdup assay
Set-up: key: below the threshold = too weak to quantify, mostly under pKd 3.1 to 4
Conditions: plain residues with an end cap or a label only (N-terminal biotin on a linker: ado-ado)

Chain of NHERF2_2, Q15599 (Q15599 142-238): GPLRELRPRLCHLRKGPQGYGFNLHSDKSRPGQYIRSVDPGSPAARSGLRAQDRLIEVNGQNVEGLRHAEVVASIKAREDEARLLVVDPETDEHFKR

Row | Binder | pKd
21 | SSGSTSSSRI [ADGRG1, Q9Y653] | 3.71
22 | PKLMGVETVV [DUSP10, Q9Y6W6] | below the threshold

Molecular target: NHERF4_2, Q86UT5
Experiment: holdup assay
Set-up: key: below the threshold = too weak to quantify, mostly under pKd 3.1 to 4
Conditions: plain residues with an end cap or a label only (N-terminal biotin on a linker: ado-ado)

Chain of NHERF4_2, Q86UT5 (Q86UT5 220-308): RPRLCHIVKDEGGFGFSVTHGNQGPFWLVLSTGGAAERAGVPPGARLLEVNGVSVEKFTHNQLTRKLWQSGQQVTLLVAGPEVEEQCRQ

Row | Binder | pKd
23 | SSGSTSSSRI [ADGRG1, Q9Y653] | below the threshold
24 | PKLMGVETVV [DUSP10, Q9Y6W6] | below the threshold

Molecular target: T6, TJP3_3, O95049
Experiment: holdup assay
Set-up: key: below the threshold = too weak to quantify, mostly under pKd 3.1 to 4
Conditions: plain residues with an end cap or a label only (N-terminal biotin on a linker: ado-ado)

Row | Binder | pKd
25 | SSGSTSSSRI [ADGRG1, Q9Y653] | below the threshold
26 | PKLMGVETVV [DUSP10, Q9Y6W6] | below the threshold

Molecular target: GRIP2_6, Q9C0E4
Experiment: holdup assay
Set-up: key: below the threshold = too weak to quantify, mostly under pKd 3.1 to 4
Conditions: plain residues with an end cap or a label only (N-terminal biotin on a linker: ado-ado)

Chain of GRIP2_6, Q9C0E4 (Q9C0E4 648-740): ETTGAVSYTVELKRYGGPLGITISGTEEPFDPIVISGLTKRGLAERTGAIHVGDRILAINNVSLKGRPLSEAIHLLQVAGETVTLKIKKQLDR

Row | Binder | pKd
27 | SSGSTSSSRI [ADGRG1, Q9Y653] | below the threshold
28 | PKLMGVETVV [DUSP10, Q9Y6W6] | below the threshold

Molecular target: T7, SIPA1L2, Q9P2F8
Experiment: holdup assay
Set-up: key: below the threshold = too weak to quantify, mostly under pKd 3.1 to 4
Conditions: plain residues with an end cap or a label only (N-terminal biotin on a linker: ado-ado)

Row | Binder | pKd
29 | SSGSTSSSRI [ADGRG1, Q9Y653] | below the threshold
30 | PKLMGVETVV [DUSP10, Q9Y6W6] | below the threshold

Molecular target: SCRIB_1, Q14160
Experiment: holdup assay
Set-up: key: below the threshold = too weak to quantify, mostly under pKd 3.1 to 4
Conditions: plain residues with an end cap or a label only (N-terminal biotin on a linker: ado-ado)

Chain of SCRIB_1, Q14160 (Q14160 718-814): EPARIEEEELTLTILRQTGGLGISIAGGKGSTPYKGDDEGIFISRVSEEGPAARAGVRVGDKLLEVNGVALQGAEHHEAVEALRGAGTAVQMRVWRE

Row | Binder | pKd
31 | SSGSTSSSRI [ADGRG1, Q9Y653] | below the threshold
32 | PKLMGVETVV [DUSP10, Q9Y6W6] | 4.28

Molecular target: T8, LRRC7, Q96NW7
Experiment: holdup assay
Set-up: key: below the threshold = too weak to quantify, mostly under pKd 3.1 to 4
Conditions: plain residues with an end cap or a label only (N-terminal biotin on a linker: ado-ado)

Row | Binder | pKd
33 | SSGSTSSSRI [ADGRG1, Q9Y653] | below the threshold
34 | PKLMGVETVV [DUSP10, Q9Y6W6] | 3.83

Molecular target: Inadl_3, Q8NI35
Experiment: holdup assay
Set-up: key: below the threshold = too weak to quantify, mostly under pKd 3.1 to 4
Conditions: plain residues with an end cap or a label only (N-terminal biotin on a linker: ado-ado)

Chain of Inadl_3, Q8NI35 (Q8NI35 359-469): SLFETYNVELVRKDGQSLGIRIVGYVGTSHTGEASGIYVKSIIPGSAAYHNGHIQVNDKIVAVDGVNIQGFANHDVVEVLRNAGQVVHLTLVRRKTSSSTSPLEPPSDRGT

Row | Binder | pKd
35 | SSGSTSSSRI [ADGRG1, Q9Y653] | below the threshold
36 | PKLMGVETVV [DUSP10, Q9Y6W6] | 4.51

Molecular target: T9, PDZD7_3, Q9H5P4
Experiment: holdup assay
Set-up: key: below the threshold = too weak to quantify, mostly under pKd 3.1 to 4
Conditions: plain residues with an end cap or a label only (N-terminal biotin on a linker: ado-ado)

Row | Binder | pKd
37 | SSGSTSSSRI [ADGRG1, Q9Y653] | 4.3
38 | PKLMGVETVV [DUSP10, Q9Y6W6] | 5.19

Molecular target: T10, GRIP1_5, Q9Y3R0
Experiment: holdup assay
Set-up: key: below the threshold = too weak to quantify, mostly under pKd 3.1 to 4
Conditions: plain residues with an end cap or a label only (N-terminal biotin on a linker: ado-ado)

Row | Binder | pKd
39 | SSGSTSSSRI [ADGRG1, Q9Y653] | below the threshold
40 | PKLMGVETVV [DUSP10, Q9Y6W6] | below the threshold

Molecular target: T11, NHERF3_1, Q5T2W1
Experiment: holdup assay
Set-up: key: below the threshold = too weak to quantify, mostly under pKd 3.1 to 4
Conditions: plain residues with an end cap or a label only (N-terminal biotin on a linker: ado-ado)

Row | Binder | pKd
41 | SSGSTSSSRI [ADGRG1, Q9Y653] | 4.48
42 | PKLMGVETVV [DUSP10, Q9Y6W6] | below the threshold

Molecular target: T12, APBA2_1, Q99767
Experiment: holdup assay
Set-up: key: below the threshold = too weak to quantify, mostly under pKd 3.1 to 4
Conditions: plain residues with an end cap or a label only (N-terminal biotin on a linker: ado-ado)

Row | Binder | pKd
43 | SSGSTSSSRI [ADGRG1, Q9Y653] | below the threshold
44 | PKLMGVETVV [DUSP10, Q9Y6W6] | below the threshold

Molecular target: GIPC2, Q8TF65
Experiment: holdup assay
Set-up: key: below the threshold = too weak to quantify, mostly under pKd 3.1 to 4
Conditions: plain residues with an end cap or a label only (N-terminal biotin on a linker: ado-ado)

Chain of GIPC2, Q8TF65 (Q8TF65 112-203): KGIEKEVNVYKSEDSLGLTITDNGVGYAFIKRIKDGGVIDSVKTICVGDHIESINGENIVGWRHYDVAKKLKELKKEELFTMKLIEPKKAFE

Row | Binder | pKd
45 | SSGSTSSSRI [ADGRG1, Q9Y653] | below the threshold
46 | PKLMGVETVV [DUSP10, Q9Y6W6] | below the threshold

Molecular target: T13, DFNB31_1, Q9P202
Experiment: holdup assay
Set-up: key: below the threshold = too weak to quantify, mostly under pKd 3.1 to 4
Conditions: plain residues with an end cap or a label only (N-terminal biotin on a linker: ado-ado)

Row | Binder | pKd
47 | SSGSTSSSRI [ADGRG1, Q9Y653] | 4.27
48 | PKLMGVETVV [DUSP10, Q9Y6W6] | 4.09

Molecular target: MAGI2_6, Q86UL8
Experiment: holdup assay
Set-up: key: below the threshold = too weak to quantify, mostly under pKd 3.1 to 4
Conditions: plain residues with an end cap or a label only (N-terminal biotin on a linker: ado-ado)

Chain of MAGI2_6, Q86UL8 (Q86UL8 1141-1229): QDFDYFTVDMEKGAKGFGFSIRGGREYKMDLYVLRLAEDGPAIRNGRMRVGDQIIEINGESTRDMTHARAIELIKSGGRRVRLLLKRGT

Row | Binder | pKd
49 | SSGSTSSSRI [ADGRG1, Q9Y653] | below the threshold
50 | PKLMGVETVV [DUSP10, Q9Y6W6] | 3.99
